What all share (experiment): cell-based or functional assay
In one assay the target is human GLP-1 receptor (human, UniProt P43220 24-463).
The next assay concerns the target T1, human GIP receptor (human, UniProt P48546 22-466).
T1 sequence (looked up): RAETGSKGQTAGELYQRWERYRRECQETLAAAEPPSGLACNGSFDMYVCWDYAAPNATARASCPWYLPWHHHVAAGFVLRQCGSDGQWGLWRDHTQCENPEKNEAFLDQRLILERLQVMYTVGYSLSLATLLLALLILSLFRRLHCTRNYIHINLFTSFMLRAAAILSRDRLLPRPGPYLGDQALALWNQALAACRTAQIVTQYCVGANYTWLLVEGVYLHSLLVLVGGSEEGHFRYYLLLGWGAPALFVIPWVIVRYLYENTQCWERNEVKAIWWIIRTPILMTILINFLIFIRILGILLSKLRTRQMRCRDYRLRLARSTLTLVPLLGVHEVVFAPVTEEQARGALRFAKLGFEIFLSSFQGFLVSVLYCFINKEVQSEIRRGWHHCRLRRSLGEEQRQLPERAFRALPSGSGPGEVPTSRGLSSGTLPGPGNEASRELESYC

Assay [1] concerns the target T2, human neuropeptide Y2 receptor (human, UniProt P49146 1-381).
T2 sequence (looked up): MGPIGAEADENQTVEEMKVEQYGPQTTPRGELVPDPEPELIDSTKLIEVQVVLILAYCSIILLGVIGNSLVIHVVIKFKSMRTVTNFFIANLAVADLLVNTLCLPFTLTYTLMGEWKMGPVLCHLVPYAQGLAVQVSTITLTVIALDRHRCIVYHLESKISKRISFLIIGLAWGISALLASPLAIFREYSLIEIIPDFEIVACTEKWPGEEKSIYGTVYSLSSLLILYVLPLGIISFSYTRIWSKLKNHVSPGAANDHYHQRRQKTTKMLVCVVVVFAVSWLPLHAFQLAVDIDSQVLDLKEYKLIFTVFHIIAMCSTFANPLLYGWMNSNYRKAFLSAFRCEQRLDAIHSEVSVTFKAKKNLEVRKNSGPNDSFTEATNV

Numbering of substitutions follows the chain as printed. Starred links: 1 amine or outer side, 2 acyl side, 3 side chain; linkers in the order of their positions; H or OH if unused. Non-standard residues stand in square brackets, D forms with d. Groups on a side chain read outwards from the residue. No end group written: not given here. *: point of attachment. C18 diacid = O=C(O)CCCCCCCCCCCCCCCCC(=O)*; γGlu = O=C(O)[C@H](CCC(=O)[*:2])N[*:1]; εLys = N[C@@H](CCCCN[*:1])C(=O)[*:2]; AEEA = NCCOCCOCC(=O)O; Aib = CC(C)(N)C(=O)O

Take Y[Aib]EGTFTSDYSI[Aib]LEKQAQ[Aib]AFVEWLIK([εLys-γGlu-γGlu-γGlu-γGlu-γGlu-C18 diacid])GGPESGASLRHYYNWLTRQRY-NH2 [Compound 152]: in the assay with human GLP-1 receptor, the “EC50 CreLuc hGLP1R 0.5% hP” value is 0.13 nM and the “EC50 CreLuc hGLP1R 100% hP” value turned out to be 4.24 nM. For the same molecule, in the assay with human GIP receptor, the “EC50 CreLuc hGIPR 0.5% hP” value stood at 0.4 nM and the “EC50 CreLuc hGIPR 100% hP” value came to 0.96 nM. Further, in assay [1], the “EC50 CreLuc hNPY2R 0.5% hP” value stood at 12.6 nM and the “EC50 CreLuc hNPY2R 100% hP” value was 39.1 nM.

With Y[Aib]EGTFTSDYSI[Aib]LEKQAQ[Aib]AFVQWLIK([εLys-γGlu-γGlu-γGlu-γGlu-γGlu-C18 diacid])GGPSEPASLRHYYNWLTRQRY-NH2 [Compound 148], in the assay with human GLP-1 receptor, the “EC50 CreLuc hGLP1R 0.5% hP” value turned out to be 0.08 nM and the “EC50 CreLuc hGLP1R 100% hP” value worked out at 1.46 nM. Moreover, in the assay with human GIP receptor, the “EC50 CreLuc hGIPR 0.5% hP” value worked out at 0.07 nM and the “EC50 CreLuc hGIPR 100% hP” value was 0.47 nM. Also, in assay [1], the “EC50 CreLuc hNPY2R 0.5% hP” value was 11 nM and the “EC50 CreLuc hNPY2R 100% hP” value is 21.1 nM.

As to Y[Aib]EGTFTSDYSI[Aib]LEKQAE[Aib]AFVEWLIK([AEEA-AEEA-γGlu-γGlu-γGlu-γGlu-C18 diacid])GGPSSGASLRHYYNWLTRQRY-NH2 [Compound 150], in the assay with human GLP-1 receptor, the “EC50 CreLuc hGLP1R 0.5% hP” value is 0.31 nM and the “EC50 CreLuc hGLP1R 100% hP” value was found to be 8.35 nM. Moreover, in the assay with human GIP receptor, the “EC50 CreLuc hGIPR 0.5% hP” value is 0.27 nM and the “EC50 CreLuc hGIPR 100% hP” value worked out at 1.65 nM. In assay [1], the “EC50 CreLuc hNPY2R 0.5% hP” value was 16.7 nM and the “EC50 CreLuc hNPY2R 100% hP” value was determined as 62.7 nM.

Y[Aib]EGTFTSDYSI[Aib]LEKQAQ[Aib]EFVQWLIK([γGlu-γGlu-γGlu-γGlu-γGlu-γGlu-C18 diacid])GGPSEGASLRHYYNWLTRQRY-NH2 [Compound 151]: in the assay with human GLP-1 receptor, the “EC50 CreLuc hGLP1R 0.5% hP” value stood at 0.26 nM and the “EC50 CreLuc hGLP1R 100% hP” value is 4.39 nM. Further, in the assay with human GIP receptor, the “EC50 CreLuc hGIPR 0.5% hP” value was determined as 0.91 nM and the “EC50 CreLuc hGIPR 100% hP” value is 1.28 nM. Also, in assay [1], the “EC50 CreLuc hNPY2R 0.5% hP” value was found to be 18.9 nM and the “EC50 CreLuc hNPY2R 100% hP” value turned out to be 42.3 nM.

B1: Compound 149 (peptide)
peptide: YXEGTFTSDYSIXLEKQAQXAFVQWLIKGGPEEGASLRHYYNWLTRQRY
modifications: Aib at 2, 13, 20; K28 side chain: C18DA-gGlu-gGlu-gGlu-gGlu-gGlu-gGlu-eLys; C-terminal NH2
Regarding B1, in the assay with human GLP-1 receptor, the “EC50 CreLuc hGLP1R 0.5% hP” value was found to be 0.15 nM and the “EC50 CreLuc hGLP1R 100% hP” value was determined as 4.76 nM. Moreover, in the assay with human GIP receptor, the “EC50 CreLuc hGIPR 0.5% hP” value came to 0.58 nM and the “EC50 CreLuc hGIPR 100% hP” value turned out to be 0.79 nM. In assay [1], the “EC50 CreLuc hNPY2R 0.5% hP” value amounted to 18.6 nM and the “EC50 CreLuc hNPY2R 100% hP” value was determined as 40.3 nM.

B2: Compound 153 (peptide)
peptide: B1 peptide with A21E, E32S
modifications: Aib at 2, 13, 20; K28 side chain: C18DA-gGlu-gGlu-gGlu-gGlu-gGlu-gGlu-eLys; C-terminal NH2
Turning to B2, in the assay with human GLP-1 receptor, the “EC50 CreLuc hGLP1R 0.5% hP” value turned out to be 0.25 nM and the “EC50 CreLuc hGLP1R 100% hP” value was found to be 6.12 nM. In addition, in the assay with human GIP receptor, the “EC50 CreLuc hGIPR 0.5% hP” value was 0.22 nM and the “EC50 CreLuc hGIPR 100% hP” value is 1.21 nM. In addition, in assay [1], the “EC50 CreLuc hNPY2R 0.5% hP” value stood at 18.9 nM and the “EC50 CreLuc hNPY2R 100% hP” value was 58.5 nM.

Consider Y[Aib]EGTFTSDYSI[Aib]LEKQAQ[Aib]AFVQWLIKGGPSSGASLRHYYNWLTRQRY-NH2 (not fully specified (residue 28)) [Compound 147], for which, in the assay with human GLP-1 receptor, the “EC50 CreLuc hGLP1R 0.5% hP” value was 0.08 nM and the “EC50 CreLuc hGLP1R 100% hP” value was 1.54 nM. In the assay with human GIP receptor, the “EC50 CreLuc hGIPR 0.5% hP” value was 0.19 nM and the “EC50 CreLuc hGIPR 100% hP” value amounted to 1.6 nM. For the same molecule, in assay [1], the “EC50 CreLuc hNPY2R 0.5% hP” value came out at 23.3 nM and the “EC50 CreLuc hNPY2R 100% hP” value was 65.6 nM.

For Y[Aib]EGTFTSDYSI[Aib]LEKQAQ[Aib]EFVQWLIK([εLys-γGlu-γGlu-γGlu-γGlu-γGlu-C18 diacid])GGPSEGASLRHYYNWLTRQRY-NH2 [Compound 154], in the assay with human GLP-1 receptor, the “EC50 CreLuc hGLP1R 0.5% hP” value turned out to be 0.26 nM and the “EC50 CreLuc hGLP1R 100% hP” value is 6.65 nM. Moreover, in the assay with human GIP receptor, the “EC50 CreLuc hGIPR 0.5% hP” value stood at 0.4 nM and the “EC50 CreLuc hGIPR 100% hP” value amounted to 1.07 nM. Moreover, in assay [1], the “EC50 CreLuc hNPY2R 0.5% hP” value is 10.7 nM and the “EC50 CreLuc hNPY2R 100% hP” value stood at 21.6 nM.

The record behind these values is patent publication US20240247080A1, “GLP1/GIP/NPY2 RECEPTOR TRIPLE AGONISTS” (Boehringer Ingelheim International GmbH, priority 2022, published 2024).
